Results published in article PMC11833078.

Columns and labels:
[1] = target: Prp19-Flag (Chlamydomonas reinhardtii (endogenous)); assay: cryo-EM structure; endogenous spliceosomes (C* complex) isolated at 4 °C by the same procedure from the Cdc5L-Flag and the Prp19-Flag knock-in strains: anti-FLAG M2 resin (20 mM HEPES-KOH pH 7.9, 150 mM NaCl, 1.5 mM MgCl2, 4% glycerol), FLAG peptide elution, 10-30% glycerol gradient with 0-0.1% glutaraldehyde; two reconstructions at 2.6 Å without obvious differences, one atomic model
[2] = target: Prp19 (Chlamydomonas reinhardtii (endogenous)); assay: as above

stoichiometry N [1] | stoichiometry N [2] | Substance
4 | – | Prp19-Flag (natural protein)
– | 4 | Prp19 (natural protein)
